From US20240261333A1 (published 2024)

Columns and labels:
HNRNPK = biological target: T1, HNRNPK (human, UniProt P61978-3 1-440, limits assumed); assay: co-IP, anti-FLAG, lysate of cells with C-FLAG B3GNT2; mass spectrometry
T1 construct: also called NP_001305115.1 (+1)

UBAP2L = biological target: T2, UBAP2L (human, UniProt Q14157 1-1087); assay: as above
T2 construct: also called NP_055662.3 (+3)
T2 sequence (looked up): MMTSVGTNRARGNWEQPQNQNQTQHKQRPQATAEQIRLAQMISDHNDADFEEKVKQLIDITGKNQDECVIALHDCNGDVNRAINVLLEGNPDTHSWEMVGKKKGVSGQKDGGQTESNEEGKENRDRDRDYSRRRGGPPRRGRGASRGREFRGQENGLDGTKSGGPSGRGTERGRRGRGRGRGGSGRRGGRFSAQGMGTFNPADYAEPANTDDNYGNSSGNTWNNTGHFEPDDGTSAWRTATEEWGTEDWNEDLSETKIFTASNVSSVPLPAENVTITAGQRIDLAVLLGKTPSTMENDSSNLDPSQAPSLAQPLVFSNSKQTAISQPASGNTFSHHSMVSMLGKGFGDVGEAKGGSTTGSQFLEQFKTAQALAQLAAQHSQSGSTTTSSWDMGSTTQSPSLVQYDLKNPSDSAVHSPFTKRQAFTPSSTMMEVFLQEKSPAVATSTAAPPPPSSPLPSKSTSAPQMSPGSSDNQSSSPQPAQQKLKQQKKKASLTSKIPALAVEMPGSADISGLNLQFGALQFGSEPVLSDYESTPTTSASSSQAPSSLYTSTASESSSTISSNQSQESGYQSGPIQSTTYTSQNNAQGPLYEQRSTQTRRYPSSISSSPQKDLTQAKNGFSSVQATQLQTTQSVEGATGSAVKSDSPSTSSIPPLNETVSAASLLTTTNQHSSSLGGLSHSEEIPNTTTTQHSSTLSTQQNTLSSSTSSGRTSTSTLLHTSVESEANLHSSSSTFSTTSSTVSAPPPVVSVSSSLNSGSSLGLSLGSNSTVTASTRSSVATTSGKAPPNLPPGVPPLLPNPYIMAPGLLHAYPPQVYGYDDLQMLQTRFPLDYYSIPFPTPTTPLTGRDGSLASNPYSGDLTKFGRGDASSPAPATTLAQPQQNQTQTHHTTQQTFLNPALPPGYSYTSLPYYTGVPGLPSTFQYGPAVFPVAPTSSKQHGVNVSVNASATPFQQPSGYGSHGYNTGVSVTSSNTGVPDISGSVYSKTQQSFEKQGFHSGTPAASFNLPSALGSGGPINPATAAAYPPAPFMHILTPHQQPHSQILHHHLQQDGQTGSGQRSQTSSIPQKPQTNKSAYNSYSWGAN

CD70 = biological target: T3, CD70 (human, UniProt P32970 1-193); assay: co-IP with anti-FLAG, mass spectrometry; lysate of cells with N-FLAG B3GNT2
T3 construct: also called NP_001243.1
T3 sequence (looked up): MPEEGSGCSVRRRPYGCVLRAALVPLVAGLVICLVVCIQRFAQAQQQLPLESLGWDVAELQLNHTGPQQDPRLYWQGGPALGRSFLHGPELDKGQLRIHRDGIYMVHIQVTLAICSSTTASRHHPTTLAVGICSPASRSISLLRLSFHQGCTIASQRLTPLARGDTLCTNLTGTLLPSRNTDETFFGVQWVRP
Protocol: (§1) Cells were plated in 10-cm cell culture dishes and grown to 60-80% confluency. For each condition, two biological replicates were harvested for co-IP. Cells were washed with PBS and 4 mL of lysis buffer (20 mM HEPES, 1% Triton X-100, 150 mM NaCl, 1 mM EDTA, and 10% glycerol) containing protease inhibitor cocktail was added. Cells were scraped and lysate was incubated at 4° C. under rotary agitation for 1 h. Lysate was centrifuged at 14,000×g for 10 min at 4° C. Supernatant was transferred to a new tube and an aliquot was taken as the input. […] For Western blots, 10 μg/mL Chicken Anti-FLAG (Aves labs ET-DY100) and IgY control (R&D Systems AB-101-C) antibodies were biotinylated (Thermo Fisher Scientific 90407) and added to the respective conditions. Lysates with antibodies were incubated at 4° C. under rotary agitation overnight. For each mL of lysate, 50 μL of Pierce Protein A/G Magnetic Beads (Mass spectrometry; Thermo Fisher Scientific 88803) or Pierce Streptavidin Magnetic Beads (Western blot; Thermo Fisher Scientific 88817) was washed twice with lysis buffer. Lysates with antibodies were added to the beads and incubated at 4° C. under rotary agitation for 4 h. Beads were washed with lysis buffer 3 times and resuspended in lysis buffer for storage.
(§2) Magnetic beads were resuspended in 100 mM Tris pH 7.8, reduced, alkylated and digested with trypsin at 37° ° C. overnight. This solution was subjected to solid phase extraction to concentrate the peptides and remove unwanted reagents followed by injection onto a Shimadzu HPLC with fraction collector. Eight fractions were collected and after concentration were injected on a Waters NanoAcquity HPLC equipped with a self-packed Aeris 3 μm C18 analytical column 0.075 mm by 20 cm, (Phenomenex). Peptides were eluted using standard reverse-phase gradients. The effluent from the column was analyzed using a Thermo Orbitrap Elite mass spectrometer (nanospray configuration) operated in a data dependent manner for 54 minutes. The resulting fragmentation spectra were correlated against the known database using Proteome Discover 1.4 (Thermo Fisher Scientific).

PJA2 = biological target: T4, PJA2 (human, UniProt O43164 2-708); assay: as above
T4 construct: also called NP_055634.3
T4 sequence (looked up): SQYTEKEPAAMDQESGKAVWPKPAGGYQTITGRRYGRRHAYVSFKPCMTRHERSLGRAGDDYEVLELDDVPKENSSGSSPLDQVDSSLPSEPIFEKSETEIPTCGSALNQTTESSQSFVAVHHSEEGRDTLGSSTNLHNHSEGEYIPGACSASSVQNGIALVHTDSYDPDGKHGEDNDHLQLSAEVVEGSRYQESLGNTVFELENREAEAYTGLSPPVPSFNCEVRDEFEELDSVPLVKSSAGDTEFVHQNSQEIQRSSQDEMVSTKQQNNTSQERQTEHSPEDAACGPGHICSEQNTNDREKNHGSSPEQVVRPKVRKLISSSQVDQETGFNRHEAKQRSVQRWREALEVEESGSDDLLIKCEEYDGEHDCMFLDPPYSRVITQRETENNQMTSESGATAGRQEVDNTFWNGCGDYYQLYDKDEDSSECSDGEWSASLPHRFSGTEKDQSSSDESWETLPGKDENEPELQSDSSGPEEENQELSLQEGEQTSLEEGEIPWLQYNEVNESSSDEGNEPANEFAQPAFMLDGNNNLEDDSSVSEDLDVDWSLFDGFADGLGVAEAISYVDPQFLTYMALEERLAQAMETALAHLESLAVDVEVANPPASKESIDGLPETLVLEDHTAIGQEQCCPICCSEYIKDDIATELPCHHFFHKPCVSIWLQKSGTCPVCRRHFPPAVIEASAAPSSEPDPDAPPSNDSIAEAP
Protocol: as §1, §2

T1 sequence (P61978 other isoform, or with tags, fused parts or gaps limits assumed): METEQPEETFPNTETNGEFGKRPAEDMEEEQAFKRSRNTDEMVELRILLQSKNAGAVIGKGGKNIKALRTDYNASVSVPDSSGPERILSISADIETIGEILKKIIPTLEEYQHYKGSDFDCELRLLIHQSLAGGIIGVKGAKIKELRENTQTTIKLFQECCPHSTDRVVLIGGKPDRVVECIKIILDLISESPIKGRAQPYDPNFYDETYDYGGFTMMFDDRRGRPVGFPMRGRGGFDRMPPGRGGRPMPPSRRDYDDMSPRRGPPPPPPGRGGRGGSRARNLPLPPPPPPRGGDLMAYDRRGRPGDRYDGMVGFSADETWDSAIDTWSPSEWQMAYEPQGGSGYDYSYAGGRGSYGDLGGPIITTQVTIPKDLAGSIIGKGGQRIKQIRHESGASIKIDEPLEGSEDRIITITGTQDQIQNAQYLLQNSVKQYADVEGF

| Binder | co-IP mass spectrometry count (HNRNPK) | co-IP mass spectrometry count (UBAP2L) | co-IP mass spectrometry count (CD70) | co-IP mass spectrometry count (PJA2) |
| --- | --- | --- | --- | --- |
| C-terminal FLAG tagged B3GNT2 (enzyme, human, UniProt Q9NY97 1-397, looked up, Overexpressed in cells and pulled down from the lysate with mouse anti-FLAG antibody; also called C-FLAG B3GNT2; C-term flag; not shown: C-terminal FLAG tag) MSVGRRRIKLLGILMMANVFIYFIMEVSKSSSQEKNGKGEVIIPKEKFWKISTPPEAYWNREQEKLNRQYNPILSMLTNQTGEAGRLSNISHLNYCEPDLRVTSVVTGFNNLPDRFKDFLLYLRCRNYSLLIDQPDKCAKKPFLLLAIKSLTPHFARRQAIRESWGQESNAGNQTVVRVFLLGQTPPEDNHPDLSDMLKFESEKHQDILMWNYRDTFFNLSLKEVLFLRWVSTSCPDTEFVFKGDDDVFVNTHHILNYLNSLSKTKAKDLFIGDVIHNAGPHRDKKLKYYIPEVVYSGLYPPYAGGGGFLYSGHLALRLYHITDQVHLYPIDDVYTGMCLQKLGLVPEKHKGFRTFDIEEKNKNNICSYVDLMLVHSRKPQEMIDIWSQLQSAHLKC | 12 | 19 |  |  |
| N-terminal FLAG tagged B3GNT2 (enzyme, human, UniProt Q9NY97 1-397, looked up, Bait of the co-IP; pulled down with mouse anti-FLAG (Millipore Sigma F3165) from cell lysate; also called N-FLAG B3GNT2; N-term FLAG; not shown: N-terminal FLAG tag) MSVGRRRIKLLGILMMANVFIYFIMEVSKSSSQEKNGKGEVIIPKEKFWKISTPPEAYWNREQEKLNRQYNPILSMLTNQTGEAGRLSNISHLNYCEPDLRVTSVVTGFNNLPDRFKDFLLYLRCRNYSLLIDQPDKCAKKPFLLLAIKSLTPHFARRQAIRESWGQESNAGNQTVVRVFLLGQTPPEDNHPDLSDMLKFESEKHQDILMWNYRDTFFNLSLKEVLFLRWVSTSCPDTEFVFKGDDDVFVNTHHILNYLNSLSKTKAKDLFIGDVIHNAGPHRDKKLKYYIPEVVYSGLYPPYAGGGGFLYSGHLALRLYHITDQVHLYPIDDVYTGMCLQKLGLVPEKHKGFRTFDIEEKNKNNICSYVDLMLVHSRKPQEMIDIWSQLQSAHLKC |  |  | 0 | 0 |
